Measured values from US20040248202A1, “Bacteriorhodopsin/G protein-coupled receptor chimeras” (Wisconsin Alumni Research Foundation, priority 1998, published 2004).

How the values were obtained:
transducin = transducin (Homo sapiens, UniProt P11488); assay: GTPyS exchange assay in the presence of high affinity analog or random peptide; type: biochemical; conditions: for % Inhibition of GTPγS Uptake (Controlled for Peptide inhibition of Basal Exchange): 3C; for % Inhibition of GTPγS Uptake (Controlled for Peptide inhibition of Basal Exchange) / Specific counts (Lattice Form) / SPECIFIC COUNTS: (Lattice Form): 10 Minutes
Procedure: (§1) Chimeric or bacteriorhodopsin protein (1.7 uM) was incubated with 0.8 uM holotransducin with 10 nM ^35S radiolabeled GTPyS in buffer (20 mM Hepes (pH 7.5), 5 mM MgCl2, 1 mM DTT, 0.1 mM EDTA, and 20 mM NaCl). The reaction was incubated at 30° C. for 5, 10, 15 or 30 minutes. The reaction was terminated by transferring aliquots of the reaction mixture to nitrocellulose filters (0.45 um) prewetted with wash buffer (10 mM Tris (pH 7.5), 5 mM MgCl2, 100 mM NaC1, 0.1 mM EDTA) and placed on a vacuum manifold. The filters were then washed with 8 ml of wash buffer. The filters were then placed overnight in scintillation vials filled with 20 ml of scintillation cocktail. The activity of the vials was counted by a Liquid Scintillation Counter. For the BR-Rhodopsin loop 3 chimeras, in which the rhodopsin intracellular loop 3 replaced the native BR intracellular loop 3 and was fused from T157 on BR TM 5 to V167 on BR TM 6, activity was determined by an increased uptake of GTPS over basal exchange by transducin alone.
The high affinity analog has the sequence V-L-E-D-L-K-S-C-G-L-F-G (SEQ ID NO:43) (J. Biol. Chem. 271 pp. 361-366, 1996).
The random peptide consists of the sequence S-S-V-F-L-V-V-D-R-S-R (SEQ ID NO:44).
The addition of the high affinity analog at a final concentration of 8 uM gave the following results.
The second inhibition experiment used 50 uM of the high affinity analog.

holotransducin = holotransducin (Homo sapiens, UniProt P11488); assay: Effects of GDP concentration on the basal exchange of GTPγS by holotransducin; type: biochemical; conditions: 10 Minutes
Procedure: as §1
The next set of experiments was designed to measure the effects of GDP concentration on the basal exchange of GTPγS by holotransducin.

[1] = Basal Exchange (no chimera) + 8 uM peptide

Sequence of transducin (P11488 2-350 limits assumed): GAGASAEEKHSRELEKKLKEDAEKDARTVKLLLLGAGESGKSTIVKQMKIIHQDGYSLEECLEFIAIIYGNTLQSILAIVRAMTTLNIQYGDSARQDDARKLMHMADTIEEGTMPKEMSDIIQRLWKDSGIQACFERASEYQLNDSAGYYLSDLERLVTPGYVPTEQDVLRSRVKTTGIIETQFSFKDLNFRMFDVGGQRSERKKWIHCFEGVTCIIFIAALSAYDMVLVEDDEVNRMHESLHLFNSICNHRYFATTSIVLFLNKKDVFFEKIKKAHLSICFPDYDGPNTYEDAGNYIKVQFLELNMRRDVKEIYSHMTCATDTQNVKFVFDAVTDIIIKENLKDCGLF
Sequence of transducin (P62873 2-340 partner limits assumed): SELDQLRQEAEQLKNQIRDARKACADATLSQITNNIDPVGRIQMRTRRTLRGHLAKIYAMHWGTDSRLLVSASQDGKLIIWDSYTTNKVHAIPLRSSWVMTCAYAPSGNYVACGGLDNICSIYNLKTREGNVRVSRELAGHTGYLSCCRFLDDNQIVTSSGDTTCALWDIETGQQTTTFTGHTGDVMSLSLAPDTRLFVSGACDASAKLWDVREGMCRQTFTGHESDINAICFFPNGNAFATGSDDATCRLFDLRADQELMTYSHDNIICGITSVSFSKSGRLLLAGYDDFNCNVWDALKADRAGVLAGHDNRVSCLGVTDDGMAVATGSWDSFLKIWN
Sequence of transducin (P63211 2-71 partner limits assumed): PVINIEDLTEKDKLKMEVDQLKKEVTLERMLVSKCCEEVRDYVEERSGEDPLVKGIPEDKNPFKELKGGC
Sequence of holotransducin (P11488 2-350 limits assumed): as the sequence (P11488 2-350 limits assumed) above
Sequence of holotransducin (P62873 2-340 partner limits assumed): as the sequence (P62873 2-340 partner limits assumed) above
Sequence of holotransducin (P63211 2-71 partner limits assumed): as the sequence (P63211 2-71 partner limits assumed) above

Compound	% Inhibition of GTPγS Uptake (Controlled for Peptide inhibition of Basal Exchange) (transducin; 8 uM peptide) [%]	% Inhibition of GTPγS Uptake (Controlled for Peptide inhibition of Basal Exchange) (transducin; 50 uM peptide) [%]	Specific counts (Lattice Form) (transducin; 3C + 8 uM peptide) [counts]	SPECIFIC COUNTS: (Lattice Form) (transducin; 3C + 50 uM peptide) [counts]	Specific counts (Lattice Form) (transducin; [1]) [counts]	Specific counts (Lattice Form) (holotransducin; Basal Exchange + 10 uM GDP) [counts]	Specific counts (Lattice Form) (holotransducin; Basal Exchange + 50 uM GDP) [counts]	Specific counts (Lattice Form) (holotransducin; Basal Exchange + 100 uM GDP) [counts]	SPECIFIC COUNTS: (Lattice Form) (transducin; Basal Exchange (no chimera) + 50 uM peptide) [counts]	Effect on chimera-enhanced GTP-GDP exchange (transducin; presence of peptide)
S-S-V-F-L-V-V-D-R-S-R (SSVFLVVDRSR) [Random peptide]	5.8	30	47516	35568	23868					
Nc1nc2c(ncn2[C@@H]2O[C@H](COP(=O)(O)OP(=O)(O)O)[C@@H](O)[C@H]2O)c(=O)[nH]1 [GDP]						22885	11061	7502		
V-L-E-D-L-K-S-C-G-L-F-G (VLEDLKSCGLFG) [High affinity analog]	23	70	42455	46892	23154				33888	inhibited
